Drawing on publication PMC4877050, this text covers stoichiometry N for one substance.

In the experiment the target is wild-type Bcl-xL (mouse full-length, adenovirus-expressed) (mouse) (UniProt Q64373). As to the kind of experiment: native gel or EMSA; Blue Native PAGE (4-16% Bis-Tris) of the mitochondrial fraction of adenovirus-transduced TKPTS cells, extracted with 1% n-dodecyl-β-D-maltoside; blots probed for Bcl-xL, then Bax. A general note: In EMSA bound probe runs differently from free probe, usually more slowly.

As a reminder, the stoichiometry N is the number of molecules, sites or subunits per partner or assembly. The substance “wild-type Bcl-xL (mouse full-length, adenovirus-expressed) (from UniProt Q64373-1 1-233) (natural protein)” gave a stoichiometry N of 2.
